Reference: article PMC3401468
Like-named read-outs stand apart in the source and are kept apart here.

Legend:
XPF;ERCC1 = molecular target: T1, XPF;ERCC1 (human;human, UniProt Q92889;P07992 12-916;1-297, |); test: SPR
T1 sequence 1: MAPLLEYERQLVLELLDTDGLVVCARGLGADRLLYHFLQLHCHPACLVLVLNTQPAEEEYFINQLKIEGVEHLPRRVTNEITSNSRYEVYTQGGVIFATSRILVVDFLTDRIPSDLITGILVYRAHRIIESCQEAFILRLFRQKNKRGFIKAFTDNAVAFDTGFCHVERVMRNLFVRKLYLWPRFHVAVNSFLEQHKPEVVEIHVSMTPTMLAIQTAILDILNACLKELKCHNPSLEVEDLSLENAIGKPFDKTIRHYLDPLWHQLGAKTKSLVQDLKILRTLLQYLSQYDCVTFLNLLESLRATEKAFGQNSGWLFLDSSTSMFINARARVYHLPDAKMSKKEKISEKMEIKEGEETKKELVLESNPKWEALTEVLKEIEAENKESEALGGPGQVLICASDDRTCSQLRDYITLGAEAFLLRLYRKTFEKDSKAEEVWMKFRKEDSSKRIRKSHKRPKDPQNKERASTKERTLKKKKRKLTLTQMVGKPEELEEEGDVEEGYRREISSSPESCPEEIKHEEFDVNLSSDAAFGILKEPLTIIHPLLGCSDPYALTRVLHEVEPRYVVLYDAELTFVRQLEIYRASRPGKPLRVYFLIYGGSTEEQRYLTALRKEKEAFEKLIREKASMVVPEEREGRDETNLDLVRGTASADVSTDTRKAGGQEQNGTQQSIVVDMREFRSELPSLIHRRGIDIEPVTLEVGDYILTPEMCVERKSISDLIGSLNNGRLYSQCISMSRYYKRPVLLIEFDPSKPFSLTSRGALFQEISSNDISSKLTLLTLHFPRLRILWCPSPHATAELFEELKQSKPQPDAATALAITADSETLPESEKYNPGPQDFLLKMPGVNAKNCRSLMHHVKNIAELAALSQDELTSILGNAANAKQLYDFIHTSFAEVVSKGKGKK
T1 sequence 2: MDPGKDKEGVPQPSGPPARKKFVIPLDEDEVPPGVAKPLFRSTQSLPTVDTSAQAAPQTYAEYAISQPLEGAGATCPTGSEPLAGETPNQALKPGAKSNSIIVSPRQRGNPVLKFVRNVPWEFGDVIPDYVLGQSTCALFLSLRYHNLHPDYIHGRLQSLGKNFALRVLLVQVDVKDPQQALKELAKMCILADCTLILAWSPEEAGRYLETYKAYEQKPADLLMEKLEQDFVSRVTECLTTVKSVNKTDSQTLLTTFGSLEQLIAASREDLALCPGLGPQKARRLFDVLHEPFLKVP

XPF-HLD [1] = molecular target: T2, XPF-HLD (human, UniProt Q92889 12-672); test: fluorescence polarization
T2 sequence: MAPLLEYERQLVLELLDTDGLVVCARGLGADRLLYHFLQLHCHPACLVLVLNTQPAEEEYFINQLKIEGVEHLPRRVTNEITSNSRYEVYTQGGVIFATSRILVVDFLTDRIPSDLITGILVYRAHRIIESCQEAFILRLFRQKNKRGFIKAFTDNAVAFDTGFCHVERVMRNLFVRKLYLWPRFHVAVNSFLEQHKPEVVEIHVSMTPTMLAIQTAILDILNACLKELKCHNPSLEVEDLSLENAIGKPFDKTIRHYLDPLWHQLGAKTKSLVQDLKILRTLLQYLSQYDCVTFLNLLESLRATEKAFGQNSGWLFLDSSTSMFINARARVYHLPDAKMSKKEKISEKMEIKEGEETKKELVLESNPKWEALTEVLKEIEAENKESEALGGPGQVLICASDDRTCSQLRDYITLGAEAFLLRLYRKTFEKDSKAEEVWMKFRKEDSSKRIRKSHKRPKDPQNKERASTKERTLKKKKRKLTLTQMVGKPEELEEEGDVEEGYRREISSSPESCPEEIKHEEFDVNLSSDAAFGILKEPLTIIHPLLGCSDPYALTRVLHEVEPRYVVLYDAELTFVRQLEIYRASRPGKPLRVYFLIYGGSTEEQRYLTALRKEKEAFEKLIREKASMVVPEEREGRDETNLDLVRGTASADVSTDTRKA

XPF-HLD [2] = molecular target: T2, XPF-HLD; test: fluorescence polarization; remark: listed apart in the source
XPF-HLD [3] = molecular target: T2, XPF-HLD; test: fluorescence polarization; remark: listed apart in the source

Row | Binder | Kd (XPF-HLD [2]) | binding result (XPF-HLD [3]) | also measured
1 | CAGCGCTCGGTTCCGAGCGCTG (structured_DNA) [Duplex with 2T loop (stem10-loop2), SPR] |  |  | binding result (XPF;ERCC1): no binding
2 | CAGCGCCTGGTTTTTTTTTTTTTTTTTTTTCCAGGCGCTG (structured_DNA) [Stem10-loop20 X=C Y=T] |  |  | Kd (XPF-HLD [1]): 63 nM
3 | GCGCTCGGCGTTTTT (ssDNA) [15-mer single strand (FP)] | 263 nM |  | 
4 | CAGCGCTCGGTTCCGAGCGCTG (structured_DNA) [2T stem-loop duplex (FP)] | 217 nM |  | 
5 | CAGCGCTTGGTTTTTTTTTTTTTTTTTTTTCCAAGCGCTG (structured_DNA) [Stem10-loop20 X=T Y=T] |  | binds | 
6 | CAGCGCGGGGTTTTTTTTTTTTTTTTTTTTCCCCGCGCTG (structured_DNA) [Stem10-loop20 X=G Y=G] |  | binds | 
